{
  "source": "patent US20060134116A1",
  "about": "“Ca 125 tumor antigen function and uses thereof” (Universite De Sherbrooke, priority 2002, published 2006)",
  "key": {"CA125 [1]": {"target": "T1, CA125 (Homo sapiens, UniProt Q8WXI7)", "T1 construct": "human ovarian cancer cell lines OVCAR-3 (high expresser of CA125); endogenous in cells; host or cells: NIH:OVCAR-3", "assay": "Co-immunoprecipitation of scFvs with anti-CA125 MAbs from transiently transfected NIH:OVCAR-3 cells", "format": "binding", "conditions": "transient transfection in NIH:OVCAR-3", "from_the_text": "C) Immunoprecipitation and co-immunoprecipitation of Golgi- and ER-targeted OC125-3.11 scFv from transient transfection of pSTCF.GOLGI-OC125-3.11 and pSTCF.KDEL-OC125-3.11 in NIH:OVCAR-3 human ovarian cancer cells using anti-c-myc, anti-CA125 Mabs OC125 and VK-8, western blot probed with anti-c-myc 9E10 antibody.\nD) Immunoprecipitation and co-immunoprecipitation of Golgi- and ER-targeted VK-8-1.9 scFv from transient transfection of pSTCF-GOLGI-VK8-1.9 and pSTCF.KDEL-VK8-1.9 in NIH:OVCAR-3 human ovarian cancer cells using anti-c-myc, anti-CA125 Mabs OC125 and VK-8, Western blot probed with anti-c-myc 9E10 antibody.\nE) Immunoprecipitation and co-immunoprecipitation of ER-targeted VK-8-4.5 scFv from transient transfection of pSTCF.KDEL-VK8-4.5 in NIH:OVCAR-3 human ovarian cancer cells using anti-c-myc, anti-CA125 Mabs OC125 and VK-8, western blot prober with anti-c-myc 9E10 antibody. […]\nImmunoprecipitation—NIH-OVCAR-3 cells were transiently transfected with the various scFv constructs using commercially available FuGene 6 transfection agent using the manufacturer's instruction. […] Protein concentration was measured by the Bradford method using the Bio-Rad protein assay according to the instruction provided by the manufacturer. […] Agarose or sepharose beads were pelleted and supernatants were analyzed by immunoblots for the presence of the various scFvs."}, "purified human CA125": {"tested_on": "purified human CA125", "assay": "CA125 binding analysis by ELISA (periplasmic extracts)", "conditions": "commercially purified human CA125", "from_the_text": "A) CA125 binding activity of anti-CA125 OC125, VK-8-1.9 and VK-8-4.5 scFvs present in periplasmic extracts of bacteria as well as anti-Bcl2 4D7 scFv compared to parental Mabs OC125 and VK-8 and to PBS and periplasmic extract from bacteria, uninduced, IPTG-induced and controls.\nThe inventors constructed single-chain antibody libraries derived from the OC125 and VK-8 hybridoma cell lines specific for CA125. The two scFv libraries were screened for CA125 binding activity by ELISA using commercially purified human CA125. […] The inventors hypothesized that if those scFvs (CA125 binders) once expressed intracellularly were localized to and retained within the ER or the Golgi then CA125 antigen would be entrapped during synthesis and thus be unable to localize at cell surface and interact with other intracellular and/or extracellular proteins to achieve its function(s). The scFvs were targeted to the ER or trans-median Golgi by sequence fusion with an Igκ secretion leader and a KDEL signal or fusion with the N-terminal 81 amino acids of human beta 1,4-galactosyltransferase, a protein resident of the trans-medial Golgi (47-49) in addition ot a c-myc tag at the C-terminus.\nBinding analysis by ELISA—Periplasmic extracts were prepared as previously described (29). […] The OD was read at 450 ηm in an ELISA plate reader."}, "CA125 [2]": {"target": "T1, CA125", "assay": "Immunofluorescence of CA125 at the cell surface, transient transfection of OVCAR-3 cells", "format": "cell-based", "conditions": "transiently transfected OVCAR-3 cells", "from_the_text": "B) NIH:OVCAR-3 cellswere transiently transfected with pSTCF.Golgi-OC125-3.11 or pSTCF.KDEL-VK-8-1.9 constructs and 48 hrs later the cells were fixed in ice-cold methanol. Expression of scFvs and CA125 was detected using the anti-c-myc A14 polyclonal antibody and anti-CA125 M11 monoclonal antibody. Oregon green anti-rabbit and Texas red anti-mouse secondary antibodies were used.\nAnti-CA125 scFvs act therefore act as potent negative modulators of CA125.\nImmunofluorescence—Transiently transfected NIH-OVCAR-3 cells or stable NIH:OVCAR-3 clones expressing the various anti-CA125 scFvs were grown on glass slide until a 50% confluence was reached. […] Slides were next washed 3 times in cold PBS, incubated for 30 min at room temperature with anti-mouse or anti-rabbit secondary antibodies coupled to Texas Red or Oregon green (1:1000), washed with PBS and mounted for visualization by fluorescence microscopy. Expression of the various anti-CA125 scFvs and CA125 was detected using anti-c-myc antibody (9E10, 1:500) and OC125 antibody (1:500). Localization of the scFvs was determined by comparing their pattern of expression with that of calreticulin and ADP-ribosylation factor for ER and Golgi localization using anti-calreticulin antibody (1:10000) anti-calreticulin and anti-ADP-ribosylation factor (1:400)."}},
  "data": [
    {"molecule": "OC125-3.11: anti-CA125 single-chain antibody derived from the OC 125 monoclonal antibody, fragment coded by SEQ ID NO 2 (protein, Golgi targeting; VH-linker-VL portion of OC125-3.11) QVQLQQSGTVLARPGASVKMSLQASGYTFTSYWMHWVKQRPGQGLEWIGAIYPGNSDTSYNQKFKGKAKLTAVTSTSTAYMELSSLTNEDSAVYYCTRSYDWYFDVWGQGTTVTVSSGGGGSGGGGSGGGGSDIELTQSPAILSVSPGERVSFSCRASQSIGTDMHWYQQRTNGSPRLLIKYASESISGIPSRFSGSGSGTDFTLSINSVESEDIADYYCQQSYSWPLTFGAGTKLEIK", "values": [
      {"measurement": "co-immunoprecipitation with CA125 using anti-CA125 OC125 and VK-8 MAbs", "setting": "CA125 [1]", "value": "co-immunoprecipitated"},
      {"measurement": "CA125 binding activity by ELISA", "setting": "purified human CA125", "value": "bound to CA125"},
      {"measurement": "expression of CA125 at the cell surface", "setting": "CA125 [2]", "value": "lost expression of CA125 at the cell surface"}
    ]}
  ]
}
